Target: T1, human CTLA-4 expressed on cells (human, UniProt P16410 36-223)
T1 construct: whole, on cells; On stably or transiently transfected HEK293 cells; also called hCTLA-4; HEK293-hCTLA-4 cells
Assay: flow cytometry on HEK293-hCTLA-4 cells
Protocol: To test the binding of antibodies to CTLA-4 under more physiological conditions, the binding of CTLA-4 antibodies to cell-surface CTLA-4 was tested. […] The surface expression of hCTLA-4 in the obtained cell line was tested using a commercial anti-CTLA-4 antibody and compared to the parent cell line (HEK293 without transfection). […] The anti-CTLA-4 antibodies were incubated in serial dilution concentrations with the HEK293-hCTLA-4 cells for 1 hour on ice. Following a wash step, an anti-human antibody conjugated to ALEXA FLUOR® 647® was added for an additional hour. The cells were washed, and propidium iodide (PI) was added to exclude dead cells. The fluorescent signal was measured using FACS and analyzed. Dead cells were removed based on the PI signal. The population was gated based on forward and side scatter (FSC and SSC) parameters, and doublets were removed. The Median Fluorescent Intensity (MFI) of the appropriate channel was calculated for the live single cells from each group. The MFI was plotted versus antibody concentration in Prism software (V6.01) and kinetic parameters were obtained using a curve fit dose response function with four parameters. […] The lower EC₅₀ values indicate increased binding affinity to cell surface hCTLA-4.

T1 sequence (P16410 36-223): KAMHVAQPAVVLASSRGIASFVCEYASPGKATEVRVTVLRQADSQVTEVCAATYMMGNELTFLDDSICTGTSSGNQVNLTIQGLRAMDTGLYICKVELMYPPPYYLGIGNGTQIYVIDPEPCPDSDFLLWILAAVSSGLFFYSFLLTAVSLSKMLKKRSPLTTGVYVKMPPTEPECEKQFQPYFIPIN

| EC50 [nM] | Binder |
| --- | --- |
| 0.31 | Ab55h-PM17 (antibody, V domains shown) VH: QVQLQESGPGLVKPSETLSLTCAVSGYSISGDYYWGWIRQPPGKGLEWIGSIYHSGYTYYNPSLKSRVTISVDTSKNQFSLKLSSVTAADTAVYYCARDSGWYVIAFDYWGQGTLVTVSS VL: EIVMTQSPATLSVSPGERATLSCRASQSVSSNLAWYQEKPGQAPRLLIYGASTRATGIPARFSGSGSGTEFTLTISSLQSEDFAVYYCQQYNVWPPLTFGGGTKVEIK |
| 0.35 | Ab55h-PM26 (antibody, V domains shown) VH: QVQLQESGPGLVKPSETLSLTCAVSGYSISGDYYWGWIRQPPGKGLEWIGSIYHSGYTYYNPSLKSRVTISVDTSKNQFSLKLSSVTAADTAVYYCARDVGFYVIAFDIWGQGTLVTVSS VL: EIVMTQSPATLSVSPGERATLSCRASQSVSSNLAWYQEKPGQAPRLLIYGASTRATGIPARFSGSGSGTEFTLTISSLQSEDFAVYYCQQYNNWPPLTFGGGTKVEIK |
| 0.19 | Ab55h-PM20 (antibody, V domains shown) VH: QVQLQESGPGLVKPSETLSLTCAVSGYSISGDYYWGWIRQPPGKGLEWIGSIYHSGYTYYNPSLKSRVTISVDTSKNQFSLKLSSVTAADTAVYYCARDSGWYVIAFDYWGQGTLVTVSS VL: EIVMTQSPATLSVSPGERATLSCRASQSVYSNLAWYQEKPGQAPRLLIYGASTRATGIPARFSGSGSGTEFTLTISSLQSEDFAVYYCQQYNNWPPLTFGGGTKVEIK |
| 0.2 | Ab55h-PM27 (antibody, V domains shown) VH: QVQLQESGPGLVKPSETLSLTCAVSGYSISGDYYWGWIRQPPGKGLEWIGSIYHSGYTYYNPSLKSRVTISVDTSKNQFSLKLSSVTAADTAVYYCARDSGFYVIAFDIWGQGTLVTVSS VL: EIVMTQSPATLSVSPGERATLSCRASQSVSSNLAWYQEKPGQAPRLLIYGASTRATGIPARFSGSGSGTEFTLTISSLQSEDFAVYYCQQYNNWPPLTFGGGTKVEIK |
| 0.21 | Ab55h-PM18 (antibody, V domains shown) VH: QVQLQESGPGLVKPSETLSLTCAVSGYSISSDYYWGWIRQPPGKGLEWIGSIYHSGYTYYNPSLKSRVTISVDTSKNQFSLKLSSVTAADTAVYYCARDSGWYVIAFDYWGQGTLVTVSS VL: EIVMTQSPATLSVSPGERATLSCRASQSVSSNLAWYQEKPGQAPRLLIYGASTRATGIPARFSGSGSGTEFTLTISSLQSEDFAVYYCQQYNNWPPLTFGGGTKVEIK |
| 0.2 | Ab55h-PM24 (antibody, V domains shown) VH: QVQLQESGPGLVKPSETLSLTCAVSGYSISGDYYWGWIRQPPGKGLEWIGSIYHSGYTYYNPSLKSRVTISVDTSKNQFSLKLSSVTAADTAVYYCARDVGWYVIAFDIWGQGTLVTVSS VL: EIVMTQSPATLSVSPGERATLSCRASQSVSSNLAWYQEKPGQAPRLLIYGASTRATGIPARFSGSGSGTEFTLTISSLQSEDFAVYYCQQYNNWPPLTFGGGTKVEIK |
| 0.31 | Ab55h-PM28 (antibody, V domains shown) VH: QVQLQESGPGLVKPSETLSLTCAVSGYSISGDYYWGWIRQPPGKGLEWIGSIYHSGYTYYNPSLKSRVTISVDTSKNQFSLKLSSVTAADTAVYYCARDSGWYVIGYDYWGQGTLVTVSS VL: EIVMTQSPATLSVSPGERATLSCRASQSVSSNLAWYQEKPGQAPRLLIYGASTRATGIPARFSGSGSGTEFTLTISSLQSEDFAVYYCQQYNNWPPLTFGGGTKVEIK |
| 0.09 | Ab55h-PM22 (antibody, V domains shown) VH: QVQLQESGPGLVKPSETLSLTCAVSGYSISGDYYWGWIRQPPGKGLEWIGSIYHSGYTYYNPSLKSRVTISVDTSKNQFSLKLSSVTAADTAVYYCARDSGWYVIAFDYWGQGTLVTVSS VL: EIVMTQSPATLSVSPGERATLSCRASQSVSSNLAWYQEKPGQAPRLLIYGASTRATGIPARFSGSGSGTEFTLTISSLQSEDFAVYYCQQYNNWPPITFGGGTKVEIK |
| 0.22 | Ab55h-PM23 (antibody, V domains shown) VH: QVQLQESGPGLVKPSETLSLTCAVSGYSISGDYYWGWIRQPPGKGLEWIGSIYHSGYTYYNPSLKSRVTISVDTSKNQFSLKLSSVTAADTAVYYCARDSGWYVIAFDYWGQGTLVTVSS VL: EIVMTQSPATLSVSPGERATLSCRASQSVSSNLAWYQEKPGQAPRLLIYGASTRATGIPARFSGSGSGTEFTLTISSLQSEDFAVYYCQQYNNWPPFTFGGGTKVEIK |
| 0.22 | Ab55h-PM21 (antibody, V domains shown) VH: QVQLQESGPGLVKPSETLSLTCAVSGYSISGDYYWGWIRQPPGKGLEWIGSIYHSGYTYYNPSLKSRVTISVDTSKNQFSLKLSSVTAADTAVYYCARDSGWYVIAFDYWGQGTLVTVSS VL: EIVMTQSPATLSVSPGERATLSCRASQSVSSNLAWYQEKPGQAPRLLIYGASTRATGIPARFSGSGSGTEFTLTISSLQSEDFAVYYCQQYNNSPPLTFGGGTKVEIK |
| 0.34 | Ab55h-PM25 (antibody, V domains shown) VH: QVQLQESGPGLVKPSETLSLTCAVSGYSISGDYYWGWIRQPPGKGLEWIGSIYHSGYTYYNPSLKSRVTISVDTSKNQFSLKLSSVTAADTAVYYCARDVGFYVIAFDYWGQGTLVTVSS VL: EIVMTQSPATLSVSPGERATLSCRASQSVSSNLAWYQEKPGQAPRLLIYGASTRATGIPARFSGSGSGTEFTLTISSLQSEDFAVYYCQQYNNWPPLTFGGGTKVEIK |
| 0.12 | Ab55h-PM19 (antibody, V domains shown) VH: QVQLQESGPGLVKPSETLSLTCAVSGYSISGDYYWGWIRQPPGKGLEWIGSIYHSGYTYYNPSLKSRVTISVDTSKNQFSLKLSSVTAADTAVYYCARDSGWYVIAFDYWGQGTLVTVSS VL: EIVMTQSPATLSVSPGERATLSCRASQSVGSNLAWYQEKPGQAPRLLIYGASTRATGIPARFSGSGSGTEFTLTISSLQSEDFAVYYCQQYNNWPPLTFGGGTKVEIK |

Target: T2, Recombinant human CTLA-4-his (Sino Biologicals, 11159-H08H) (human, UniProt P16410 36-162)
T2 construct: Bought protein; also called dimer hCTLA-4; not shown: his tag
T2 sequence (P16410 36-162 limits assumed): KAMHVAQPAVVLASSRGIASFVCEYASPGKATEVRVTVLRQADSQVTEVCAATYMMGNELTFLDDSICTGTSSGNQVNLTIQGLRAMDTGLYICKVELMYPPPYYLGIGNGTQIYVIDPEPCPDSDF
Assay: SPR (Biacore T100), antibody captured on anti-human chip, CTLA-4-his in solution
Protocol: Recombinant human CTLA-4-his (Sino Biologicals, 11159-H08H) was added in a serial 2-fold dilution, starting at a concentration of 500nM. […] The measurement was corrected using the baseline channel and the protein-antibody interaction was measured by the change in surface resonance and quantified with Biacore T100 control software (version 2.0.4).

| Kd [nM] | Binder |
| --- | --- |
| 10 | Ab47h (antibody, V domains shown) VH: QVQLVESGGGVVQPGRSLRLSCAASGFTFSNYGIHWVRQAPGKGLEWVAAIWYDGNNKYYADSVKDRFTISRDNSKNTLYLQMNSLRVEDTAVYYCARNGVLGAFDIWGQGTMVTVSS VL: DIQMTQSPSSLSASVGDRVTITCRASQGISNYLAWYQQKPGKVPKLLIYAASTLQSGVPSRFSGSGSGTDFTLTISSLQPEDVATYYCQKYNSSPWTFGQGTKVEIK |

Target: T1, human CTLA-4 expressed on cells
Assay: flow cytometry on HEK293 cells overexpressing human CTLA-4, serial dilution, MFI
Protocol: HEK293 cells were prepared as described above. […] Binding was measured using FACS.

| binding result | EC50 (read off the curve) [nM] | Binder |
| --- | --- | --- |
| binds | – | Ab55h-PM-R9 (antibody, V domains shown) VH: QVQLQESGPGLVKPSETLSLTCAVSGYSISGDYYWGWIRQPPGKGLEWIGSIYHSGYTYYNPSLKSRVTISVDTSKNQFSLKLSSVTAADTAVYYCARDSGWSVIAFDYWGQGTLVTVSS VL: EIVMTQSPATLSVSPGERATLSCRASQSVSSNLAWYQEKPGQAPRLLIYGASTRATGIPARFSGSGSGTEFTLTISSLQSEDFAVYYCQQYNNWPPLTFGGGTKVEIK |
| binds | – | Ab55h-PM-R6 (antibody, V domains shown) VH: QVQLQESGPGLVKPSETLSLTCAVSGYSISGDYYWGWIRQPPGKGLEWIGSIYHSGYTYYNPSLKSRVTISVDTSKNQFSLKLSSVTAADTAVYYCARDSGWYVIAFDYWGQGTLVTVSS VL: EIVMTQSPATLSVSPGERATLSCRASQSVSSNLAWYQEKPGQAPRLLIYGASTRATGIPARFSGSGSGTEFTLTISSLQSEDFAVYYCQQYNSWPPLTFGGGTKVEIK |
| – | ~0.2 | Ab55h-PM-R5 (antibody, V domains shown) VH: QVQLQESGPGLVKPSETLSLTCAVSGYSISGDYYWGWIRQPPGKGLEWIGSIYHSGYTYYNPSLKSRVTISVDTSKNQFSLKLSSVTAADTAVYYCARDSGWYVIAFDYWGQGTLVTVSS VL: EIVMTQSPATLSVSPGERATLSCRASQSVSSNLAWYQEKPGQAPRLLIYGASTRATGIPARFSGSGSGTEFTLTISSLQSEDFAVYYCQQYGNWPPLTFGGGTKVEIK |
